Article PMC10007213

Legend:
[1] = molecular target: Dendrorhynchus zhejiangensis ferritin (DzFer) (Dendrorhynchus zhejiangensis); experiment: crystal structure; Cu^2+-DzFer crystallised (0.2 M sodium citrate, 0.1 M Tris pH 8.5, 30% PEG 400); space group I432; 2.26 Å
[2] = molecular target: Dendrorhynchus zhejiangensis ferritin (DzFer) (Dendrorhynchus zhejiangensis); experiment: crystal structure; DzFer crystals (0.2 M ammonium sulfate, 0.1 M sodium acetate pH 4.6, 30% PEG MME 2000) soaked 1 min with 100 mM AgNO3; space group I432; 1.90 Å
[3] = molecular target: Dendrorhynchus zhejiangensis ferritin (DzFer) (Dendrorhynchus zhejiangensis); experiment: native gel or EMSA; Native-PAGE, 6% gel, 4 °C, Tris-glycine pH 8.3; purified tag-free DzFer, also after incubation and dialysis at pH 4, 6, 8, 10, 12, and as Ag^+-DzFer and Cu^2+-DzFer; subunits to 24-mer cage

stoichiometry N [1]: 24
stoichiometry N [2]: 24
stoichiometry N [3]: 24
Substance: Dendrorhynchus zhejiangensis ferritin (DzFer) (natural protein)
